# Publication PMC3799859
# B1: ΔIRE1-V5/His (ER lumenal domain of human IRE1) [human] / FLAG-tagged full-length wild-type IRE1 [human] (parent)
# chain 1: IFGSTSTVTLPETLLFVSTLDGSLHAVSKRTGSIKWTLKEDPVLQVPTHVEEPAFLPDPNDGSLYTLGSKNNEGLTKLPFTIPELVQASPCRSSDGILYMGKKQDIWYVIDLLTGEKQQTLSSAFADSLCPSTSLLYLGRTEYTITMYDTKTRELRWNATYFDYAASLPEDDVDYKMSHFVSNGDGLVVTVDSESGDVLWIQNYASPVVAFYVWQREGLRKVMHINVAVETLRYLTFMSGEVGRITKWKYPFPKETEAKSKLTPTLYVGKYSTSLYASPSMVHEGVAVVPRGSTLPLLEGPQTDGVTIGDKGECVITPSTDVKFDPGLKSKNKLNYLRNYWLLIGHHETPLSASTKMLERFPNNLPKHRENVIPADSEKKSFEEVINLVDQTSENAPTTVSRDVEEKPAHAPARPEAPVDSMLKDMATIILSTFLLIGWVAFIITYPLSMHQQQQLQHQQFQKELEKIQLLQQQQQQLPFHPPGDTAQDGELLDTSGPYSESSGTSSPSTSPRASNHSLCSGSSASKAGSSPSLEQDDGDEETSVVIVGKISFCPKDVLGHGAEGTIVYRGMFDNRDVAVKRILPECFSFADREVQLLRESDEHPNVIRYFCTEKDRQFQYIAIELCAATLQEYVEQKDFAHLGLEPITLLQQTTSGLAHLHSLNIVHRDLKPHNILISMPNAHGKIKAMISDFGLCKKLAVGRHSFSRRSGVPGTEGWIAPEMLSEDCKENPTYTVDIFSAGCVFYYVISEGSHPFGKSLQRQANILLGACSLDCLHPEKHEDVIARELIEKMIAMDPQKRPSAKHVLKHPFFWSLEKQLQFFQDVSDRIEKESLDGPIVKQLERGGRAVVKMDWRENITVPLQTDLRKFRTYKGGSVRDLLRAMRNKKHHYRELPAEVRETLGSLPDDFVCYFTSRFPHLLAHTYRAMELCSHERLFQPYYFHEPPEPQPPVTPDAL
# chain 2: IFGSTSTVTLPETLLFVSTLDGSLHAVSKRTGSIKWTLKEDPVLQVPTHVEEPAFLPDPNDGSLYTLGSKNNEGLTKLPFTIPELVQASPCRSSDGILYMGKKQDIWYVIDLLTGEKQQTLSSAFADSLCPSTSLLYLGRTEYTITMYDTKTRELRWNATYFDYAASLPEDDVDYKMSHFVSNGDGLVVTVDSESGDVLWIQNYASPVVAFYVWQREGLRKVMHINVAVETLRYLTFMSGEVGRITKWKYPFPKETEAKSKLTPTLYVGKYSTSLYASPSMVHEGVAVVPRGSTLPLLEGPQTDGVTIGDKGECVITPSTDVKFDPGLKSKNKLNYLRNYWLLIGHHETPLSASTKMLERFPNNLPKHRENVIPADSEKKSFEEVINLVDQTSENAPTTVSRDVEEKPAHAPARPEAPVDSMLKD
# Variants of: B1
# Assay: co-immunoprecipitation (IP: V5, Western blot for FLAG, quantified)
# Details: with FLAG-tagged full-length wild-type IRE1 [human]; with Sig-1R overexpression; non-stressed cells; n = 4; read off a plot
row,Variant,screen value
1,chain 2 D105P,58%
